Source: the supplement of paper PMC12338614
± gives the uncertainty stated by the source.

B1: library; numbered along this chain (parent)
chain: MEVVDPQQLGMFTEGELMSVGMDTFIHRIDSTEVIYQPRRKRAKLIGKYLMGDLLGEGSYGKVKEVLDSETLCRRAVKILKKKKLRRIPNGEANVKKEIQLLRRLRHKNVIQLVDVLYNEEKQKMYMVMEYCVCGMQEMLDSVPEKRFPVCQAHGYFCQLIDGLEYLHSQGIVHKDIKPGNLLLTTGGTLKISDLGVAEALHPFAADDTCRTSQGSPAFQPPEIANGLDTFSGFKVDIWSAGVTLYNITTGLYPFEGDNIYKLFENIGKGSYAIPGDCGPPLSDLLKGMLEYEPAKRFSIRQIRQHSWFRKKHPPAEAPVPIPPSPDTKDRWRSMTVVPYLEDLHGADEDEDLFDIEDDIIYTQDFTVPGQVPEEEASHNGQRRGLPKAVCMNGTEAAQLSTKSRAEGRAPNPARKACSASSKIRRLSACKQQ

Variants of: B1
Test: STK11 functional score (HeLa growth suppression), rescaled enrichment; synonymous median = 1, nonsense median = 0 (normalised score)
Conditions: with HeLa; variant type: missense
Method in brief: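 The values are functional scores: wild-type-corrected log ratios of post- versus pre-selection abundance, rescaled to synonymous and nonsense medians, merged over codons and replicate transfections, and carrying bootstrapped error. They derive from codon-randomised (POPCode), codon-optimised STK11 libraries that Bxb1 integrated at an AAVS1 landing pad in HeLa, with three transfections for each of three regions. Sequencing of tiled gDNA amplicons ran on NextSeq, at ~2 million reads per tile.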

How did the STK11 functional score turn out when R28I was run?
Its STK11 functional score is 1.41 ± 0.49.

V95P was tested. Which STK11 functional score did it give?
Its STK11 functional score is 1.65 ± 0.3.

With S213C as the variant, how does the STK11 functional score read?
The STK11 functional score was 0.758 ± 0.11.

S213R was tested. Which STK11 functional score did it give?
Its STK11 functional score is 1.04 ± 0.3.

S213P was tested. Which STK11 functional score did it give?
The STK11 functional score was 1.32 ± 0.26.

S213G was tested. Which STK11 functional score did it give?
Its STK11 functional score is 1.37 ± 0.14.

How did the STK11 functional score turn out when V150K was run?
Its STK11 functional score is 1.36 ± 0.28.

With I35A as the variant, how does the STK11 functional score read?
Its STK11 functional score is 1.43 ± 0.11.

T244P was tested. Which STK11 functional score did it give?
Its STK11 functional score is -0.17 ± 0.1.

Which STK11 functional score does the source give for T244D here?
Its STK11 functional score is -0.0204 ± 0.1.

N412H was tested. Which STK11 functional score did it give?
The STK11 functional score was 1.1 ± 0.46.

Which STK11 functional score does the source give for V133L here?
Its STK11 functional score is 0.982 ± 0.085.

For V133E, which STK11 functional score is on record?
The STK11 functional score was 0.588 ± 0.28.

For R147P, which STK11 functional score is on record?
The STK11 functional score was 0.188 ± 0.08.

Which STK11 functional score does the source give for Y292D here?
Its STK11 functional score is 1.09 ± 0.67.

Which STK11 functional score does the source give for E165W here?
The STK11 functional score was 0.516 ± 0.11.

For R104L, which STK11 functional score is on record?
The STK11 functional score was 1.4 ± 0.2.

With F354I as the variant, how does the STK11 functional score read?
Its STK11 functional score is 1.32 ± 0.16.

Which STK11 functional score does the source give for F354R here?
The STK11 functional score was 1.53 ± 0.16.

Which STK11 functional score does the source give for D68R here?
The STK11 functional score was 1.07 ± 0.21.

For A389D, which STK11 functional score is on record?
Its STK11 functional score is 1.2 ± 0.4.

For T185P, which STK11 functional score is on record?
Its STK11 functional score is 0.0618 ± 0.18.

For T185Y, which STK11 functional score is on record?
The STK11 functional score was 0.976 ± 0.12.

Which STK11 functional score does the source give for P38G here?
Its STK11 functional score is 0.508 ± 0.53.

K175N was tested. Which STK11 functional score did it give?
The STK11 functional score was 0.914 ± 0.55.

Which STK11 functional score does the source give for F366C here?
Its STK11 functional score is 1.09 ± 0.4.

For F366S, which STK11 functional score is on record?
Its STK11 functional score is 1.58 ± 0.13.

With F366W as the variant, how does the STK11 functional score read?
Its STK11 functional score is 1.58 ± 0.14.

Which STK11 functional score does the source give for L184Q here?
Its STK11 functional score is 0.906 ± 0.2.

Which STK11 functional score does the source give for L184H here?
The STK11 functional score was 0.93 ± 0.43.

How did the STK11 functional score turn out when K64R was run?
Its STK11 functional score is 1.4 ± 0.17.

For Q399I, which STK11 functional score is on record?
Its STK11 functional score is 1.05 ± 0.34.

With E407I as the variant, how does the STK11 functional score read?
Its STK11 functional score is 1.61 ± 0.22.

G370L was tested. Which STK11 functional score did it give?
The STK11 functional score was 1.42 ± 0.27.

For P221V, which STK11 functional score is on record?
The STK11 functional score was 1.01 ± 0.12.

I248V was tested. Which STK11 functional score did it give?
The STK11 functional score was 0.854 ± 0.17.

With I248A as the variant, how does the STK11 functional score read?
Its STK11 functional score is 1.15 ± 0.26.

K122L was tested. Which STK11 functional score did it give?
The STK11 functional score was 1.43 ± 0.26.

Which STK11 functional score does the source give for K122R here?
The STK11 functional score was 1.69 ± 0.38.

K122C was tested. Which STK11 functional score did it give?
The STK11 functional score was 1.46 ± 0.36.

Which STK11 functional score does the source give for E396T here?
The STK11 functional score was 1.08 ± 0.61.

How did the STK11 functional score turn out when L50T was run?
The STK11 functional score was 1.29 ± 0.23.

For L50D, which STK11 functional score is on record?
Its STK11 functional score is 1.39 ± 0.39.

How did the STK11 functional score turn out when D277G was run?
Its STK11 functional score is 1.16 ± 0.2.

With E357H as the variant, how does the STK11 functional score read?
The STK11 functional score was 1.6 ± 0.17.

How did the STK11 functional score turn out when A200T was run?
The STK11 functional score was 1.02 ± 0.82.

How did the STK11 functional score turn out when L341H was run?
The STK11 functional score was 0.315 ± 0.23.

I356G was tested. Which STK11 functional score did it give?
The STK11 functional score was 1.45 ± 0.37.

Y118H was tested. Which STK11 functional score did it give?
The STK11 functional score was 1.14 ± 0.64.

With I111D as the variant, how does the STK11 functional score read?
Its STK11 functional score is 1.6 ± 0.19.

I111S was tested. Which STK11 functional score did it give?
The STK11 functional score was 0.535 ± 0.15.

For S334I, which STK11 functional score is on record?
The STK11 functional score was 0.935 ± 0.59.

For S334C, which STK11 functional score is on record?
The STK11 functional score was 0.325 ± 0.13.

L167F was tested. Which STK11 functional score did it give?
The STK11 functional score was 1.05 ± 0.23.

For L167H, which STK11 functional score is on record?
Its STK11 functional score is -0.00514 ± 0.083.

Which STK11 functional score does the source give for L182Y here?
Its STK11 functional score is -0.00243 ± 0.071.

P149R was tested. Which STK11 functional score did it give?
Its STK11 functional score is 0.413 ± 0.2.

With P149S as the variant, how does the STK11 functional score read?
Its STK11 functional score is 0.988 ± 0.13.

How did the STK11 functional score turn out when C418G was run?
The STK11 functional score was 1.61 ± 0.24.

N94A was tested. Which STK11 functional score did it give?
Its STK11 functional score is 0.173 ± 0.19.

With M335G as the variant, how does the STK11 functional score read?
Its STK11 functional score is 1.55 ± 0.15.

With M335Q as the variant, how does the STK11 functional score read?
Its STK11 functional score is 1.01 ± 0.25.

How did the STK11 functional score turn out when A406V was run?
The STK11 functional score was 1.52 ± 0.28.

I177S was tested. Which STK11 functional score did it give?
The STK11 functional score was -0.0448 ± 0.12.

With P319G as the variant, how does the STK11 functional score read?
Its STK11 functional score is 1.53 ± 0.2.

With K178L as the variant, how does the STK11 functional score read?
The STK11 functional score was 0.63 ± 0.1.

For K178P, which STK11 functional score is on record?
The STK11 functional score was -0.0986 ± 0.093.

For V337N, which STK11 functional score is on record?
Its STK11 functional score is 1.54 ± 0.17.

With E376R as the variant, how does the STK11 functional score read?
Its STK11 functional score is 1.39 ± 0.16.

How did the STK11 functional score turn out when Y253G was run?
Its STK11 functional score is 0.758 ± 0.17.

Which STK11 functional score does the source give for R383T here?
The STK11 functional score was 1.56 ± 0.24.

Which STK11 functional score does the source give for R383E here?
Its STK11 functional score is 1.57 ± 0.27.

How did the STK11 functional score turn out when E14Y was run?
The STK11 functional score was 1.34 ± 0.49.

For Q37G, which STK11 functional score is on record?
Its STK11 functional score is 1.08 ± 0.14.

For L386P, which STK11 functional score is on record?
The STK11 functional score was 0.743 ± 0.56.

With T209P as the variant, how does the STK11 functional score read?
Its STK11 functional score is 1.27 ± 0.3.

For T209W, which STK11 functional score is on record?
Its STK11 functional score is 1.28 ± 0.47.

Which STK11 functional score does the source give for I46A here?
The STK11 functional score was 1.5 ± 0.22.

With I46V as the variant, how does the STK11 functional score read?
Its STK11 functional score is 0.613 ± 0.39.

With M22W as the variant, how does the STK11 functional score read?
Its STK11 functional score is 0.633 ± 0.55.

Which STK11 functional score does the source give for D53Y here?
The STK11 functional score was 1.38 ± 0.1.

With S232R as the variant, how does the STK11 functional score read?
The STK11 functional score was 1.39 ± 0.17.

Which STK11 functional score does the source give for E120H here?
Its STK11 functional score is 1.66 ± 0.17.

How did the STK11 functional score turn out when N109K was run?
Its STK11 functional score is 1.14 ± 0.19.
